The record followed here is patent publication US20100280227A1 (Genentech, published 2010).

Substitutions are numbered along the chain they refer to. Names and notes keep the numbering of the source. Values joined by “and” are separate entries in the source; they are usually repeats but may differ in a detail not shown here. Identical values can stand only once. Like-named read-outs stand apart in the source and are kept apart here.

One experiment addresses T1, MiniBR3 peptide (human, C-terminal amide; disulfide between cysteines 24 and 35 and a second disulfide (BR3 numbering)).
T1 construct: synthetic
In words: phage competition ELISA. In general terms: In an ELISA, binding on a coated surface is turned into a signal by an enzyme label.

The target of experiment [1] is T2, human BR3 extracellular domain (human, UniProt Q96RJ3 1-61).
T2 construct: biotinylated where used as tracer; also called hBR3-ECD; BR3-ECD
The experiment is described as follows: SPR BIAcore-2000, ECD on chip, Fab injected. On the technique in general: SPR reads the build-up and loss of mass on a sensor chip optically.
Description: (§1) Biacore measurement Surface plasmon resonance assays on a BIAcore™-2000 were used to determine the affinity of anti-BR3 Fabs. […] For kinetics analysis, 1:1 Languir model of simultaneous fitting of kₒₙ and koff was used.

Experiment [2] has as its target T3, mouse BR3 extracellular domain (mouse, UniProt Q9D8D0 1-64).
T3 construct: also called mBR3-ECD; mBR-ECD
T3 sequence: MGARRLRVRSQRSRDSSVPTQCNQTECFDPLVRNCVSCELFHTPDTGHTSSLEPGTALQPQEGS
The experiment is described as follows: SPR BIAcore-2000, ECD on chip, Fab injected.
Description: as §1

In experiment [3] the target is T2, human BR3 extracellular domain. The experiment is described as follows: single spot phage competition ELISA; OD with competitor / OD without competitor; criterion met by the picked clones.
Experiment [4] addresses T3, mouse BR3 extracellular domain. Described as above.
In experiment [5] the target is T2, human BR3 extracellular domain. In words: F(ab)'2 phage solution binding competition ELISA.
Protocol: (§2) Third, a competition ELISA was performed. […] The wells were blocked by adding 65 ul 1% BSA for 30 minutes followed by 40 ul 1% Tween20 for another 30 minutes. The wells were washed with PBS—0.05% Tween20 5 times. […] The wells of the second plate were washed with PBS—0.5% Tween20 at least three times. 75 ul of HRP-conjugated anti-M13 antibody (1/5000 dilution with ELISA buffer) per well was added and incubated at room temperature for 30 minutes. The wells were washed again with PBS—0.05% Tween20 at least five times.
The target in experiment [6] is T3, mouse BR3 extracellular domain. In words: F(ab)'2 phage solution binding competition ELISA.
Protocol: as §2
The target in a further experiment is T4, mouse BR3-Fc (mouse).
T4 construct: (BR3 ECD fused to a murine Fc); also called mBR3-Fc; murine BR3-Fc
T4 chain: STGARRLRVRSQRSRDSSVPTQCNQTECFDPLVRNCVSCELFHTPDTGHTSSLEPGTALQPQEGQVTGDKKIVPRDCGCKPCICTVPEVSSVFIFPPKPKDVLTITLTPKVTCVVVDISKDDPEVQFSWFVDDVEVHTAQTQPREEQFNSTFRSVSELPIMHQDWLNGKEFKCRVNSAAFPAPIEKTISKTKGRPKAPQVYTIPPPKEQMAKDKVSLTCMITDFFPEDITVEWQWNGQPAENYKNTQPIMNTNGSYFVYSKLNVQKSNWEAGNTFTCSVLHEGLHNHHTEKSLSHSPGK
The experiment is described as follows: F(ab)'2 phage solution binding competition ELISA.

Experiment [7] concerns the target T2, human BR3 extracellular domain. In words: SPR BIAcore-3000, Fab.
Description: (§3) Surface plasmon resonance assays on a BIAcore™-3000 were used to determine the affinity of the Fabs.
Experiment [8] addresses T3, mouse BR3 extracellular domain. The experiment is described as follows: SPR BIAcore-3000, Fab.
Description: as §3
The target is the same in experiment [9]. The experiment is described as follows: SPR BIAcore-2000, mBR3-ECD on chip, Fab injected.
Description: as §1
Experiment [10] deals with T2, human BR3 extracellular domain. The experiment is described as follows: SPR BIAcore-2000, hBR3-ECD on chip, Fab injected.
Description: as §1
Experiment [11] has the same target. In words: SPR, BR3 ECD on chip.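 Note: Anti-BR3 antibodies passed over the chip at high flow in PBS with 0.05% polysorbate 20, on and off rates fitted together globally to a 1:1 binding model.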
Protocol: (§4) After coupling, unoccupied sites on the chip were blocked by injecting 20 μl of 1M ethanolamine, pH 8.5. The running buffer was PBS containing 0.05% polysorbate 20. […] The binding surface was regenerated by injecting 20-30 μl of 10 mM glycine.HCl (pH 1.5). […] Data were analyzed using a 1:1 binding model using global fitting. The association and dissociation rate constants were fitted simultaneously (BIAevaluation software).
(§5) A high flow rate was used in order to minimize mass transport effects.
Experiment [12] has the same target. In words: BIAcore, Fab over immobilised target.
Protocol: (§6) Each sample was analysed with 2-minute association and 20-minute dissociation. After each injection the chip was regenerated using 10 mM Glycine pH 1.5. Binding response was corrected by subtracting the RU from a blank flow cell. A 1:1 Languir model of simultaneous fitting of kₒₙ and koff was used for kinetics analysis.
The target of experiment [13] is T5, variant human BR3-Fc fusion.
T5 construct: produced in CHO cells; also called vBR3-Fc; vhBR3-Fc
The experiment is described as follows: BIAcore, Fab over immobilised target.
Protocol: as §6

The target is the same in experiment [14]. The experiment is described as follows: SPR, vBR3-Fc on chip.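 Note: Anti-BR3 antibodies passed over chip-bound BR3-Fc in PBS with 0.05% polysorbate 20, on and off rates fitted together globally to a 1:1 binding model.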
Protocol: as §4, §5

T1 sequence (peptide, as listed by the source): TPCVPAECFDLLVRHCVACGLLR
Protocol for mouse BR3-Fc: as §2

B1: V3-11 Fab (Fab, V domains shown)
VH: EVQLVESGGGLVQPGGSLRLSCAASGFTISSNSIHWVRQAPGKGLEWVAWITPSDGNTDYADSVKGRFTISADTSKNTAYLQMNSLRAEDTAVYYCARRVCYNNLGVCAGAMDYWGQGTLVTVSS
VL: DIQMTQSPSSLSASVGDRVTITCRASQDVSTAVAWYQQKPGKAPKLLIYSASFLYSGVPSRFSGSGSGTDFTLTISSLQPEDFATYYCQQTSTSPPTFGQGTKVEIKR
notes: soluble Fab in SPR
A word on the IC50: it is the concentration needed to halve the response being measured. Lower therefore signals higher potency. The Kd is the equilibrium constant for the complex coming apart. The low end stands for tighter binding, the high end for weaker binding. As usually defined, the koff is a measure of how fast the partners let go of each other. As a reminder, the kon is the rate constant with which the complex forms. A high value points to fast association. With B1, in the experiment with MiniBR3 peptide, the concentration for half-maximal inhibition (IC50) was found to be 11 nM. In experiment [1], this molecule came in with a Kd of 60.1 nM, an off-rate (koff) of 0.00113 s⁻¹ and an association rate constant (kon) of 21800 M⁻¹ s⁻¹. In experiment [2], this molecule came in with a Kd of 20.4 nM, an off-rate (koff) of 0.000888 s⁻¹ and a kon of 43600 M⁻¹ s⁻¹. Further, in [3], the “OD450nm reduction (%)” value is less than 50%. Further, in experiment [4], the “OD450nm reduction (%)” value is less than 50%.

B2: 51 (Fab, V domains shown)
VH: EVQLVESGGGLVQPGGSLRLSCAASGFTISSTGIHWVRQAPGKGLEWVGGISPSSGSTNYADSVKGRFTISADTSKNTAYLQMNSLRAEDTAVYYCARRKVVSSHVTNKYVMDYWGQGTLVTVSS
VL: B1 VL with T91S, S92Y, S94T
notes: also called V51; clone 51
Consider B2, for which the binding result was “binds” in [5] and “no binding” in experiment [6].

B3: 75 (Fab, V domains shown)
VH: EVQLVESGGGLVQPGGSLRLSCAASGFTINGSWIHWVRQAPGKGLEWVAWITPSNGSTDYADSVKGRFTISADTSKNTAYLQMNSLRAEDTAVYYCARLSRRPWLWGMDYWGQGTLVTVSS
VL: B1 VL with T91S, S92Y, S94T
notes: also called V75; clone 75
Take B3: the binding result is reported as “binds” in experiment [5] and “no binding” in [6]. Moreover, in the experiment with mouse BR3-Fc, the IC50 was more than 10 µM.

B4: V3-46s Fab (Fab, V domains shown)
VH: B1 VH with N32S, I51V, T52L, D55V, N57F, N104R, A111G
VL: B1 VL with T91S, S92Q, T93I
notes: N31S mutant of V3-46; also called V46s; N31S
For the molecule B4, the dissociation constant (Kd) turned out to be 0.6 nM in experiment [7], 1 nM in experiment [8], 1 nM in experiment [9] and 0.6 nM in experiment [10]. Moreover, the koff in [7] was 8.6e-05 s⁻¹; in experiment [8], 0.00027 s⁻¹; in experiment [9], 0.00027 s⁻¹; in [10] it was 8.6e-05 s⁻¹. In addition, the association rate constant (kon) worked out at 140000 M⁻¹ s⁻¹ in experiment [7], 270000 M⁻¹ s⁻¹ in experiment [8], 270000 M⁻¹ s⁻¹ in experiment [9] and 140000 M⁻¹ s⁻¹ in experiment [10].

B5: V3-13 Fab (Fab, V domains shown)
VH: B1 VH with S31R, N32R, N103S, N104S, L105V, G106R, V107G
VL: B1 VL with S50G, F53N, T91S, S92H, T93A
notes: soluble Fab in SPR
Consider B5, for which the IC50 with MiniBR3 peptide turned out to be 473 nM. For the same molecule, the Kd came to 1200 nM in [1] and 40 nM in [2]. In experiment [1], the koff came to 0.0028 s⁻¹. The on-rate constant (kon) in experiment [1] is 2300 M⁻¹ s⁻¹. For the same molecule, the “OD450nm reduction (%)” value in experiment [3] and in experiment [4] was less than 50% in each case.

B6: 44 (Fab, V domains shown)
VH: EVQLVESGGGLVQPGGSLRLSCAASGFTITGSYIHWVRQAPGKGLEWVAWIYPDGGYTDYADSVKGRFTISADTSKNTAYLQMNSLRAEDTAVYYCASKPAGPFGYWGQGTLVTVSS
VL: B1 VL with T91S, S92Y, S94T
notes: also called V44; clone 44
Regarding B6, the binding result in [5] is recorded as “no binding”. Also, the half-maximal inhibitory concentration (IC50) in [6] was 1500 nM.

B7: 46 (Fab, V domains shown)
VH: EVQLVESGGGLVQPGGSLRLSCAASGFTITGSYIHWVRQAPGKGLEWVAWIYPDGGYTDYADSVKGRFTISADTSKNTAYLQMNSLRAEDTAVYYCASKPAGFGYWGQGTLVTVSS
VL: B1 VL with T91S, S92Y, S94T
notes: also called V46; clone 46 of the naive library (not V3-46)
Take B7: the binding result (in [5]; with mouse BR3-Fc) was “binds” throughout.

B8: V3-12 Fab (Fab, V domains shown)
VH: B1 VH with N103D, N104R, L105A, G106R
VL: B1 VL with T91S, S92Y, T93S, S94T
notes: soluble Fab in SPR
B8 had a half-inhibitory concentration (IC50) with MiniBR3 peptide of 35 nM. In experiment [1], this molecule registered a dissociation constant Kd of 72 nM, a koff of 0.00091 s⁻¹ and an association rate constant (kon) of 13000 M⁻¹ s⁻¹. Also, in experiment [2], the Kd amounted to 36 nM, the off-rate (koff) amounted to 0.0013 s⁻¹ and the association rate constant (kon) is 36000 M⁻¹ s⁻¹. Further, the “OD450nm reduction (%)” value in experiment [3] is less than 50%. Besides, in experiment [4], the “OD450nm reduction (%)” value is less than 50%.

B9: chimeric 11G9 Fab (Fab, V domains shown)
VH: DVQLQESGPSLVKPSQTLSLTCSVTGDSITSGYWNWIRKFPGNKLEYMGYISYSGSTYYNPSLKSRISITRDTSKNQFYLQLLSVTTEDTATYYCAGLDGLYWYFDVWGAGTLVTVSS
VL: DIVMTQTPLSLPVSLGDQASISCRSSQSLVHSNGNTYLHWYLQKPGQSPKLLIYKVSNRFSGVPDRFSGSGSGTDFTLKISRVEAEDLGVYFCSQSTHVPPFTFGSGT
notes: Fab with murine variable domains; also called Ch 11G9 Fab
Turning to B9, in [11], the dissociation constant (Kd) is 19.5 nM and 23.5 nM; the off-rate (koff) is 0.0233 s⁻¹ and 0.0263 s⁻¹; the on-rate constant (kon) was 1.2e+06 M⁻¹ s⁻¹ and 1.12e+06 M⁻¹ s⁻¹. Also, the affinity in experiment [12], expressed as Kd, was 21.5 nM. In experiment [13], this molecule displayed a Kd of more than 100 nM.

B10: chimeric 2.1 Fab (Fab, V domains shown)
VH: EVQLQESGPSLVKPSQTLSLTCSVTGDSITRGYWNWIRKFPGNKLEFMGYINYSGTTYYNPSLKSRISITRDTSKNQYYLQLNSVTTEDTATYYCATPHTYGAMDYWGQGTTLTVSA
VL: DIVLTQSPVSLAVSLGQRATISCRASESVDDYGISFMHWYQQKPGQPPKLLIYRASDLESGIPARFSGSGSGTDFTLTINPVETDDVAIYYCQQTSKDPWTFGGGT
notes: Fab with murine variable domains; also called Ch 2.1 Fab
For the molecule B10, the Kd is 0.12 nM and 0.11 nM in experiment [11]; 1.12 nM in experiment [14] (140 RU BR3-Fc immobilized); 0.92 nM in [14] (220 RU BR3-Fc immobilized); 0.115 nM in [12]. Besides, the koff was 0.000271 s⁻¹ and 0.000294 s⁻¹ in [11]; 0.00148 s⁻¹ in [14] (140 RU BR3-Fc immobilized); 0.00145 s⁻¹ in experiment [14] (220 RU BR3-Fc immobilized). Moreover, the kon in [11] is 2.25e+06 M⁻¹ s⁻¹ and 2.65e+06 M⁻¹ s⁻¹; in experiment [14] (140 RU BR3-Fc immobilized) it was 1.32e+06 M⁻¹ s⁻¹; in experiment [14] (220 RU BR3-Fc immobilized), 1.58e+06 M⁻¹ s⁻¹.

B11: Hu9.1-73 Fab (Fab, V domains shown)
VH: EVQLVESGGGLVQPGGSLRLSCAASGLPMAGFYTSWVRQAPGKGLEWVGFIRDKANGYTTEYNPSVKGRFTISADTSKNTAYLQMNSLRAEDTAVYYCAQVRRALDYWGQGTLVTVSS
VL: DIQMTQSPSSLSASVGDRVTITCKSSQSLLYSSNQNNYLAWYQQKPGKAPKLLIYWAQHLDSGVPSRFSGSGSGTDFTLTISSLQPEDFATYYCQQYYTYPYTFGQGTKVEIKR
notes: Fab expressed in E. coli
Turning to B11, in [11], the Kd is 0.31 nM and 0.32 nM; the koff is 0.000174 s⁻¹ and 0.000175 s⁻¹; the kon is 560000 M⁻¹ s⁻¹ and 550000 M⁻¹ s⁻¹. In addition, in experiment [14], the dissociation constant (Kd) was 0.43 nM and 0.48 nM; the koff was 0.000215 s⁻¹ and 0.000225 s⁻¹; the on-rate (kon) was 500000 M⁻¹ s⁻¹ and 470000 M⁻¹ s⁻¹. Further, in [13], the Kd is 0.45 nM.

B12: Hu9.1-88 Fab (Fab, V domains shown)
VH: B11 VH with L27F, M29V, A30T, F32S, T34V, A74R, A81L
VL: B11 VL with Q58S, H59T, L60R, D61E
notes: Fab
With B12, the equilibrium dissociation constant (Kd) stood at 0.736 nM in [11], 1.37 nM in experiment [14], 6.3 nM in experiment [12] and 11 nM in experiment [13]. For the same molecule, the results for the koff in [11] and in experiment [14] were 0.00101 s⁻¹ and 0.000742 s⁻¹, respectively. In addition, the kon in experiment [11] worked out at 1.37e+06 M⁻¹ s⁻¹; in experiment [14], 541000 M⁻¹ s⁻¹.
